B1: mRNA-splicing (parent)
chain: AGUUGCUGCUGGGAGCUCCAGCACAGUGAAAUGGACAGAAGGGCAGAGCAA

Variants of: B1
Assay: exon inclusion enrichment index; higher = more inclusion; WT1 exon 5 minigene, HEK293

Variant	exon inclusion enrichment index
G15U C16U	0.0329
G5U G8U C9U A29C A30U	0.0831
C6A U7C C9A U10C C16A U17A	3.43
C6A U7C C9A U10C G46A A47G	1.33
U27G G28C	0.101
G5C C6U G8C C9U U10C G33U	0.658
G5A C6U U7A G8U C9A G12U G13U	0.00049
C6A U7A C9A U10A C36G	0.433
U7G G8U	1.91
G5U G8U C9U A39G	0.0522
G5C U7G G8A U10A	0.113
G5C C6U G8C C9U U10C G28U	0.486
G5C C6U G8C C9U U10C G28C	1.55
C6A U7A C9A U10A A14G	0.618
G5A U7C G8A U10C G26A U27G	2.93
G5C C6G U7C U10C A35C C36U	0.625
U10A G11A	2.02
C6A U7C C9A U10C C24A A25G	2.94
G5A U7A C9A U10A	0.318
G5C C6U G8C C9U U10C G13A A14G	2.03
G5C C6U G8C C9U U10C U17A C18A	1.32

Variant	exon inclusion enrichment index
G5U G8U C9U C16U U17G	0.0101
G5U G8U C9U C16U U17C	0.0384
A37G G38C	0.249
G5A U7C G8A U10C G28C A29U	1.13
G5C C6U G8C C9U U10C A47C	2.38
G43A	0.774
G5A C6G U7G G8C C9G	0.0513
G5C C6G U7C C9U U10G	1.02
G5U G8U C9U G33C G34A	0.0575
U10A	0.633
G5A C6U U7A G8U C9A C44G	0.115
G5A C6G U7G C9A A45U G46C	0.00134
G5C C6U G8C C9U U10C A40U	1.67
G5C C6G U7C U10C C18G	3.71
G5A U7C G8A U10C A37G G38U	0.991
G5C C6G U7C U10C G38C A39U	0.532
C6A U7C G8U C9G U10C	1.91
U3A G5U G8U C9U	0.513
C6A U7C C9A U10C G42U G43A	3.84
G5C C6A U7C G8A U10A G12C	0.365
C44U A45U	0.0412

Variant	exon inclusion enrichment index
C6A U7A C9A U10A G43U C44G	0.238
C6A U7C C9A U10C A29G A30C	2.23
C6A U7C C9A U10C A29G A30U	1.72
G5C C6U G8C C9U U10C G34U	0.391
G5C C6G U7C U10C A45C G46U	1.87
G5C C6U G8C C9U U10C A23G C24G	3.51
G5A C6G U7G C9A C18U C19A	0.00106
C6A U7A C9A U10A A37G G38C	0.984
G5A C6U U7A G8U C9A A30G A31C	0.00117
C6A U7A C9A U10A A14G G15U	0.274
C6A U7C C9A U10C U27G G28C	2.4
G5C C6A U7C G8A U10A C36G	0.0563
A23G	0.414
G5A C6G U7G C9A G15C	0.00583
C6A U7C C9A U10C G38C	2.15
G5C C6G U7A G8A U10C	2.49
C6A U7C C9A U10C G13A A14G	3
G5C C6U G8C C9U U10C A37U G38C	1.03
U7C G8A U10A	0.437
C6A U7A C9A U10A C44G A45U	0.598
G5A C6U U7A G8U U10G	0.317

Variant	exon inclusion enrichment index
C6A U7A C9A U10A A45C G46C	0.542
G5A C6U U7A G8U C9A G43U C44G	0.073
G5A U7C G8A U10C C24A A25G	2.4
U3C U4G	0.0956
C6A U7A C9A U10A A31U U32A	0.0674
G5A U7C G8A U10C A30U	1.71
C18U	1.27
G8C C9A	0.365
G5A C6U U7A G8U C9A U32A G33C	0.0967
G5U G8U C9U A40G G41U	0.107
G5U G8U C9U A40G G41C	0.76
C6A U7C C9A U10C A39C A40C	3.31
C6A U7C C9A U10C C18A	2.64
C6A U7C C9A U10C G12U G13U	0.542
C6A U7C C9A U10C G12U G13C	0.584
G5A U7C G8A U10C C18A C19A	0.451
A14G G15C	0.0893
G5C C6A U7C G8A U10A G15U C16G	0.018
C6A U7C C9A U10C A37C G38C	3.1
A45G	0.486
C6A U7C C9A U10C G46A	2.98

From the RNAGym collection of RNA variant scans (doi:10.1101/gr.219683.116)
